Laboratory results reported in article PMC8591511, “Flexible open conformation of the AP-3 complex explains its role in cargo recruitment at the Golgi” (The Journal of Biological Chemistry, 2021).

B1: Apl6 (β3-subunit of yeast AP-3) (natural protein, S. cerevisiae, UniProt P46682 1-809, looked up)
chain: MVDSIHRIASALDTAKVITREAAAVATSKLGESSYTYYSQNINPQQLVTLLNSRNSREVRDAMKRIISIMASDDDSIDVQLYFADVVKNITTNDTKVKRLIHLYLLRFAENDPNLTLLSINSLQKSLSDSNSELRCFALSALSDMKMSSLAPIILHTVKKLVTDPSAMVRGEVALAIIKLYRAGKNDYHEELLDILKELMADTDPKVISCAVLAYKECYADHLELLHGHFRRYCRIIKQLDSWSQSYLIELLIKYCKQYLPKPTVVDKSSEGSPRSCPLPDKYNEIEYPSYEVVNDPDLDLFLQSLNCLIYSSNPTVILSCCNALYQLASPLQMKNTKFIEALVRTVTMTENQGNKEMLLQAIHFLSILDQTLFLPYTKKFYVFPKDPIVASIWKIQILSTLINESNVKEIFKELKYYVASAHFPENVVIMAVKSLSRCGQLSTSWESHVMKWLIDHMESHNLSASVLDAYVNVIRMLVQKNPTKHLRIIFKLADLLTVQTSLADNARAGIVWLFGEIASIEFKICPDVLRRLIQNFSNEGPETRCQILVLSAKLLSYDIDNFKQAQVTGSEENNQNPPYYDFSGSRISQMYNAVLYLAKYDDEFDIRDRARMISSLFDSGKYEIVSLLLQAPKPTARSDDFIVSARLETHTPEIKEFFRMLPWNTEITEVGETGNDIREGAELKDYNKYKKSFSSQSFITNNSARSFTSSSNAKLTGINDGDSNSISGKGNVNTFTSQNGKKYRLQSLDEFFSDIPERKSKPRKIIKVVEESSDEDEDESEESSDDDEYSDSSLGTSSSGTSSSHLEL
notes: Apl6, β3-subunit of the yeast AP-3 complex; ear domain aa 631–809
B2: Aps3 (σ-subunit of yeast AP-3) (natural protein, S. cerevisiae, UniProt P47064 1-194, looked up)
chain: MIHAVLIFNKKCQPRLVKFYTPVDLPKQKLLLEQVYELISQRNSDFQSSFLVTPPSLLLSNENNNDEVNNEDIQIIYKNYATLYFTFIVDDQESELAILDLIQTFVESLDRCFTEVNELDLIFNWQTLESVLEEIVQGGMVIETNVNRIVASVDELNKAAESTDSKIGRLTSTGFGSALQAFAQGGFAQWATGQ
notes: Aps3, σ-subunit of the yeast AP-3 complex
B3: Apm3 (μ3-subunit of yeast AP-3) (natural protein, S. cerevisiae, UniProt P38153 1-483, looked up)
chain: MYLSFYITDTKNKLIFQYLLGATAPSFKHLWTRVQSTCPQLLEDSSSDDYLDHSMVGRDLEVYKYFSVINKLNYWCLASTSKSKGPLDCFTFLETIDRILLEYFDKDKLSIKKIVNNYDRISLIFNCCVEAGEPNVSDMLYVNKIKEAVPERSDLSKFISSTAHNLQQAVQLPQQRQQQLQQNQISRGSNSLIENEEIVPWRTSRASKHENNELYVDLLETFHVVFEKKKSHLRLLTGSIHGIVDVRSYLNDNPLVAVKLNTMGNDIGIPSLHDCVEINDGVFSPSNITFIPPDGKFRLLEYSVDLSSQVKQSGVRMNSIGLMSLHFQNGLGKDSDEFELSLNIENFKKVSQVDDLKIDLQFNVENADPNEIAYKIKILRNTHGRFENSIIMGQGQWIFDKSTATGTVPVLRGCIEYENTGPNFTKKVDLQTVSLEYSYIGQSASGIYVEAIDIVSGLTIGKNTKLYKGAKYKTQTGNFQVRL
notes: Apm3, μ3-subunit of the yeast AP-3 complex; N-terminal domain aa 1–138, linker aa 139–211
B4: Nyv1 (yeast SNARE, AP-3 cargo with Yxxφ motif) (natural protein, UniProt Q12255 1-253, looked up)
chain: MKRFNVSYVEVIKNGETISSCFQPFQKNENYGTITSANEQITPVIFHNLIMDMVLPKVVPIKGNKVTKMSMNLIDGFDCFYSTDDHDPKTVYVCFTLVDMPKILPIRILSGLQEYESNATNELLSSHVGQILDSFHEELVEYRNQTLNSSGNGQSSNGNGQNTISDIGDATEDQIKDVIQIMNDNIDKFLERQERVSLLVDKTSQLNSSSNKFRRKAVNIKEIMWWQKVKNITLLTFTIILFVSAAFMFFYLW
notes: Nyv1, yeast SNARE; source: reconstituted into proteoliposomes

Key:
[1] = biological target: N-myristoylated Arf1, loaded with GTP or GTPγS by Sec7ΔC (UniProt P11076); assay: liposome flotation assay; empty liposomes (Golgi-mimicking lipid mix, with or without PI3P or PI4P) incubated with increasing Arf1, Sec7 GEF and GTP, then purified AP-1 or AP-3 complex; floated on a sucrose step gradient; band of Apl4 or Apl5 in the top fraction quantified
Sequence of N-myristoylated Arf1, loaded with GTP or GTPγS by Sec7ΔC (P11076 whole entry, stated change not applied, the tested form may be a part): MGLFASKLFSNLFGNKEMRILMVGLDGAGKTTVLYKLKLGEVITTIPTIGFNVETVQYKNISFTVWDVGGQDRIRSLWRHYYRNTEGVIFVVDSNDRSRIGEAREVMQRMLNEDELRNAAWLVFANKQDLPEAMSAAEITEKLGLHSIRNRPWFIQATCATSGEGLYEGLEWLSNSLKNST

[2] = biological target: GST-Chs3(aa1-38)-Vam3(TMD) (not stated | yeast) (UniProt P29465); assay: liposome flotation assay; proteoliposomes (Golgi-mimicking lipid mix) carrying a total of 1 μM cargo, incubated with purified AP-1 or AP-3 complex, floated on a sucrose step gradient; top fraction TCA-precipitated, SDS-PAGE, band of Apl4 or Apl5 quantified as percent of load; in Fig. 6E without PIPs or Arf1, in Fig. 6D also with Arf1 and PI3P or PI4P; 150 mM NaCl, 20 mM HEPES/NaOH pH 7.4, 1 mM MgCl2, 10 % glycerol, 60 min 4 °C
Sequence of GST-Chs3(aa1-38)-Vam3(TMD) (not stated | yeast) (P29465 other isoform, or with tags, fused parts or gaps): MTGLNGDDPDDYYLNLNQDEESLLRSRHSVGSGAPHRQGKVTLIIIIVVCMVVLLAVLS

[3] = biological target: Vam3 (yeast vacuolar SNARE, AP-3 cargo with dileucine motif) (yeast) (UniProt Q12241); assay: as above
Sequence of Vam3 (yeast vacuolar SNARE, AP-3 cargo with dileucine motif) (yeast) (Q12241 whole entry): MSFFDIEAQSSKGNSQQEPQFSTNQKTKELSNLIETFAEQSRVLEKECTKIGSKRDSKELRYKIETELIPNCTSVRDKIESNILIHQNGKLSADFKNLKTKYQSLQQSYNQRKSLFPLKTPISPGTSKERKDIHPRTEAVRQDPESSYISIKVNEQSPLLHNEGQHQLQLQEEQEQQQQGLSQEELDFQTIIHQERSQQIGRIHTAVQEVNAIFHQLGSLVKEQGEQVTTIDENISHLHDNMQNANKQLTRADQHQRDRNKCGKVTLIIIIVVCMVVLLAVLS

[4] = biological target: T1, Apl5 (δ-subunit of yeast AP-3) with C-terminal 3xFLAG-tag (S. cerevisiae, UniProt Q08951 1-932); assay: pull-down + SEC; subunits overproduced together in yeast; captured from cleared lysate on anti-FLAG M2 affinity gel via the C-terminal 3xFLAG-tag on Apl5 (AP-3) or Apl4 (AP-1), eluted with FLAG-peptide, run on Superose 6 Increase; 150 mM NaCl, 20 mM HEPES/NaOH pH 7.4, 1.5 mM MgCl2; Coomassie staining after SDS-PAGE; details: partners not purified
T1 construct: Apl5, δ-subunit of the yeast AP-3 complex; ear domain aa 639–932; also called δ-adaptin; not shown: 3xFLAG, C-terminal, kept
T1 sequence (looked up): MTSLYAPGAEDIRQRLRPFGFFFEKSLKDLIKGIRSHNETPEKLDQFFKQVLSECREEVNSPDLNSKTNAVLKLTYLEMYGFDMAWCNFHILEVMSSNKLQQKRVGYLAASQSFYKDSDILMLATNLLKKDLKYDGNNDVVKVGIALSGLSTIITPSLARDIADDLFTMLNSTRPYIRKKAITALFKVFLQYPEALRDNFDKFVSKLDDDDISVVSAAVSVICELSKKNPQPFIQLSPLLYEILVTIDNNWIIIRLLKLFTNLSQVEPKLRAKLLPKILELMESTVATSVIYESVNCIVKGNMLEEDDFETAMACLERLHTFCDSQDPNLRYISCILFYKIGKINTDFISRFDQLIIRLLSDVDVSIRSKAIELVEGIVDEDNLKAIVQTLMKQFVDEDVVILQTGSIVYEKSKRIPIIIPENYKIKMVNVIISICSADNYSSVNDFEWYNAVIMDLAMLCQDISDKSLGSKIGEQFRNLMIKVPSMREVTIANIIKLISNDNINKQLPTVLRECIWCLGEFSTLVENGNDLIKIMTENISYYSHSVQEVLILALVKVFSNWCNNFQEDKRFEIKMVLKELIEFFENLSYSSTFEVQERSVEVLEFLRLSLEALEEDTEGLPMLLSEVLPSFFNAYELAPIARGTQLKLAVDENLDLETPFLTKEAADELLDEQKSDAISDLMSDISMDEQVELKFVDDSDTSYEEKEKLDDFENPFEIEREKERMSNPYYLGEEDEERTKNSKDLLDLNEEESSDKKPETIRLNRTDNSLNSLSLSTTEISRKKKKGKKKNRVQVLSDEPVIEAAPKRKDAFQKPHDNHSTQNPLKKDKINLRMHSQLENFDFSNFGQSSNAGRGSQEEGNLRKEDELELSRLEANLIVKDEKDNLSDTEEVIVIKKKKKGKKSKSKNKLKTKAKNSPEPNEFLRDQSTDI

[5] = biological target: T1, Apl5 (δ-subunit of yeast AP-3) with …; assay: cross-linking; 200 μg of purified AP-3 complex, DSSO 0.5 mM added twice, 20 min each at room temperature, quenched with Tris; trypsin, SCX, LC/MS (XlinkX, 1% FDR); details: both partners purified
[6] = biological target: B1; assay: as above; details: both partners purified
[7] = biological target: T2, full-length yeast AP-3 complex (S. cerevisiae, UniProt Q08951 1-932; P46682 1-809; P38153 1-483; P47064 1-194); assay: liposome flotation assay; proteoliposomes (Golgi-mimicking lipid mix) carrying a total of 1 μM cargo, incubated with purified AP-1 or AP-3 complex, floated on a sucrose step gradient; top fraction TCA-precipitated, SDS-PAGE, band of Apl4 or Apl5 quantified as percent of load; in Fig. 6E without PIPs or Arf1, in Fig. 6D also with Arf1 and PI3P or PI4P; 150 mM NaCl, 20 mM HEPES/NaOH pH 7.4, 1 mM MgCl2, 10 % glycerol, …; details: both partners purified
T2 construct: Apl5, δ-subunit of the yeast AP-3 complex; ear domain aa 639–932; Apl6, β3-subunit of the yeast AP-3 complex; ear domain aa 631–809; Apm3, μ3-subunit of the yeast AP-3 complex; Aps3, σ-subunit of the yeast AP-3 complex; Heterotetramer with apparent equimolar stoichiometry, about 300 kDa; also called adapter protein complex 3; copies: + + +

full-length yeast AP-1 complex (from UniProt Q12028 1-832)
fold increase in membrane-bound AP-1 with both Arf1-GTP and PI3P or PI4P [1]: 2 to 3 fold
percent of the complex bound to liposomes with Arf1-GTP (no PIPs) [1]: 10%

full-length yeast AP-3 complex, Q08951 1-932; P46682 1-809; P38153 1-483; P47064 1-194
percent of AP-3 recruited to proteoliposomes (without PIPs or Arf1) [2]: 25%
percent of AP-3 recruited to proteoliposomes (Vam3 alone) [3]: > 25%
percent of AP-3 recruited to proteoliposomes (Vam3 with low amounts of Arf1 and PIPs) [3]: 50%
percent of AP-3 recruited to proteoliposomes (without PIPs or Arf1) [3]: 25%

B1
binding result [4]: binds

B2
binding result [5]: binds
binding result [6]: binds

B3
binding result [6]: binds
binding result [4]: binds

B4
binding result [7]: binds
